Patent US20190382738A1

T1: B-Raf kinase, P15056
T1 chain: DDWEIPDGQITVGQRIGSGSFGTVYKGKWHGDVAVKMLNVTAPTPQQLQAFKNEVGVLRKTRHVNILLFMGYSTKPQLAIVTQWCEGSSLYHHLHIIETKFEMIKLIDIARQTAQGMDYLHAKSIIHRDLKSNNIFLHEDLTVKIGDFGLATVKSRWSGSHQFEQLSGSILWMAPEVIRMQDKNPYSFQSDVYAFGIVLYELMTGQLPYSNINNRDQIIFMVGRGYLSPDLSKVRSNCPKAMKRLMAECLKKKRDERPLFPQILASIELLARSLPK


Experiments:
B-Raf kinase, P15056 [1] = molecular target: T1, B-Raf kinase, P15056; experiment: isothermal titration calorimetry
B-Raf kinase, P15056 [2] = molecular target: T1, B-Raf kinase, P15056; experiment: intrinsic fluorescence titration, column head Kd (ITF) (µM)

Row | ΔS (B-Raf kinase, P15056 [1]) [J/mol·K] | Kd (B-Raf kinase, P15056 [2]) [nM] | Binder
1 | -28.4 |  | GVLRKARHVNILLFMGYST (modifications not checked) [Peptide corresponding to SEQ ID NO: 8]
2 |  | 20 | LRKTRHVNI (modifications not checked) [6257]
